{"source": "patent US20210130420A1", "about": "“RECOMBINANT BINDING PROTEINS TARGETING HER2 AND SERUM ALBUMIN, AND THEIR USES” (Molecular Partners AG, priority 2016, published 2021)", "key": {"[1]": {"experiment": "Storage stability in PBS analysed by SDS-PAGE", "type": "physicochemical", "details": "SDS-PAGE after 1 month at 40° C. in glass vials in PBS at 10 mg/ml", "experimental": "“Improved storage stability” in the context of the present invention means the reduction of the amounts of a degradation band, preferably the reduction of the amount of degradation products, as detected by a Coomassie-stained SDS-PAGE occurring after storage at 40° C. for 1 month at 10 mg/ml in PBS, by at least 5%, 10%, 15%, 20%, 25%, 30%, 35%, 40%, 45%, 50%, or 50%. Methods to assess storage stability by SDS-PAGE are well known to the person skilled in the art. Examples of designed ankyrin repeat domains and recombinant binding proteins with improved storage stability properties are given in Examples 2 and 3.\nProtein #13-His, Protein #14-His and Protein #15-His were prepared as described in Example 1, and samples were concentrated to 10 mg/ml in PBS. Protein #14-His and Protein #15-His where then stored for 1 month at −80° C. or at 40° C. in glass vials, followed by analysis on SDS 15% PAGE. […] These findings illustrate that Protein #14-His has improved storage stability compared to Proteins #13-His and Protein #15-His.\nA storage stability improvement is also observed, when testing the storage stability of Protein #21 and Protein #22 (recombinant binding proteins consisting of the amino acid sequences corresponding to SEQ ID NOs: 21 and 22, respectively). Protein #21 and Protein #22 are prepared as described in Example 1, samples are concentrated to 10 mg/ml in PBS and stored for 1 month at −80° C. in or at 40° C. in glass vials, followed by analysis on standard size-exclusion chromatography."}, "GXA281": {"system": "GXA281", "experiment": "Gastric cancer PDX mouse model GXA281", "type": "in vivo", "details": "FIG. 4E; Protein #21 40 mg/kg every three days for 6 times i.v.; Lapatinib 100 mg/kg/day for 21 days", "experimental": "In a similar experiment, Protein #21 was further tested in the gastric cancer PDX mouse model GXA281, well known to the person skilled in the art, in comparison to the standard of care Lapatinib (FIG. 4E). Briefly, tumor implantation and tumor growth monitoring was done as described above. Lapatinib was dosed at 100 mg/kg/day for 21 days daily […]. and Protein #21 at 40 mg/kg every three days for 6 times i.v."}, "[2]": {"experiment": "Pharmacokinetic comparison of Protein #21 with Protein #33", "type": "in vivo", "details": "variant lacking the C-terminal serum albumin binding domain", "description": "Many options are known in the art for pharmacokinetic engineering including PEGylation, polypeptide extension, Fc-fusion, serum albumin-fusion, and binding to serum albumin, amongst others (Kontermann, R (Ed.) “Therapeutic proteins: strategies to modulate their plasma half-lives”, Wiley-VCH Verlag GmbH, 2012, ISBN 978-3-527-32849-9). Starting from e.g. the combination of designed ankyrin repeat domains with binding specificity for HER2 comprising SEQ ID NOs: 16 and 17, there are hundreds of potential drug candidate variants (choice of pharmacokinetic modification engineering, choice of polypeptide linker (e.g. SEQ ID NOs: 2 to 9 amongst many others), amongst other aspects). […] Results of the effect of the choice of the polypeptide linker are shown e.g. in Example 10.\nFor the studies in this example Protein #21-His, Protein #24-His, Protein #28-His, Protein #29-His, and Protein #30-His were prepared according to Example 1. Protein #28-His was additionally PEGylated using a 40 kDa PEG moiety (NOF Sunbright GL2-400MA) by maleimid coupling of the PEG-moiety onto the free C-terminal cysteine of Protein #28-His, followed by purification to homogeneity using standard purification methods, procedures well known to the person skilled in the art. Pharmacokinetic analyses in mouse or cynomolgus monkey were performed as described in Examples 8 and 9."}, "MAPK1 and MAPK3": {"system": "MAPK1 and MAPK3", "experiment": "Phospho-proteome mass spectrometry", "type": "cell-based", "details": "100 nM, 18 hours", "description": "Protein #21 was expressed and purified as described in Example 1. […] Cells were then subjected to a phospho-proteome mass-spectrometry analysis as described by Britton, D., et al. (Britton, D., Zen, Y., Quaglia, A., Selzer, S., Mitra, VI., Lössner, C., Jung, S., Bohm, G., Schmid, P., Prefot, P., Hoehle, C., Koncarevic, S., Gee, J., Nicholson, R., Ward, M., Castellano, L., Stebbing, J., Zucht, H. D., Sarker, D., Heaton, N., and Pike, I., 2014. PLOS One 9 (3), e90948). […] At other phosphorylation sites, phosphorylation is increased (772)."}, "HER1/EGFR": {"system": "HER1/EGFR", "experiment": "Phosphorylation state ELISA, BT474 cells", "type": "cell-based, human", "details": "100 nM, 18 hours"}, "Foxo3a protein [3]": {"system": "Foxo3a protein", "experiment": "Cellular levels of Foxo3a protein in BT474 cells", "type": "cell-based, human", "details": "compared to an exposure to PBS only", "description": "(§1) Protein #21 was expressed and purified as described in Example 1. […] Cells were then subjected to a phospho-proteome mass-spectrometry analysis as described by Britton, D., et al. (Britton, D., Zen, Y., Quaglia, A., Selzer, S., Mitra, VI., Lössner, C., Jung, S., Bohm, G., Schmid, P., Prefot, P., Hoehle, C., Koncarevic, S., Gee, J., Nicholson, R., Ward, M., Castellano, L., Stebbing, J., Zucht, H. D., Sarker, D., Heaton, N., and Pike, I., 2014. PLOS One 9 (3), e90948).\n(§2) It is known to the practitioner in the art, that Akt1 phosphorylates Foxo3a, resulting in the degradation of Foxo3a and promotion of cell survival. Inhibition of Act phosphorylation leads to stabilization of Foxo3a and thus increase in Foxo3a levels. At increased levels Foxo3a can translocate to the nucleus and induce apoptosis."}, "Foxo3a protein [4]": {"system": "Foxo3a protein", "experiment": "Cellular levels of Foxo3a protein in NCI-N87 cells", "type": "cell-based", "details": "compared to an exposure to PBS only", "description": "as §1, §2"}}}
{"molecule": "Protein #21: SEQ ID NO: 21; HER2 binding domains (SEQ ID NOs: 16, 17) flanked by two serum albumin binding domains (SEQ ID NO: 14), SEQ ID NO: 9 linkers (protein, Protein comprising four designed ankyrin repeat domains) GSDLGKKLLEAARAGQDDEVRELLKAGADVNAKDYFSHTPLHLAARNGHLKIVEVLLKAGADVNAKDFAGKTPLHLAANEGHLEIVEVLLKAGADVNAQDIFGKTPADIAADAGHEDIAEVLQKAAGSPTPTPTTPTPTPTTPTPTPTGSDLGIKLLFAAAKGQDDEVRELLKAGADVNAKDFQGVTPLHIAAQSGHLEIVEVLLKAGADVNAKDVTGDTPLHLAAQHGHLEIVEVLLKAGADVNAQDERGWTPADLAADWGHEDIAEVLQKAAGSPTPTPTTPTPTPTTPTPTPTGSDLGKKLLEAARAGQDDEVRELLKAGADVNAKDEYGLTPLYLATAHGHLEIVEVLLKAGADVNAVDAIGFTPLHLAAFIGHLEIAEVLLKAGADVNAQDKFGKTPADIAAGAGNEDIAEVLQKAAGSPTPTPTTPTPTPTTPTPTPTGSDLGKKLLEAARAGQDDEVRELLKAGADVNAKDYFSHTPLHLAARNGHLKIVEVLLKAGADVNAKDFAGKTPLHLAANEGHLEIVEVLLKAGADVNAQDIFGKTPADIAADAGHEDIAEVLQKAA", "values": [{"measurement": "amounts of degradation products compared to Protein #22", "setting": "[1]", "result": "lower amounts of degradation products"}, {"measurement": "inhibition of tumor growth", "setting": "GXA281", "result": "strong inhibition of tumor growth compared to Lapatinib"}, {"measurement": "pharmacokinetic properties compared to Protein #33", "setting": "[2]", "result": "markedly improved pharmacokinetic properties, in particular a longer terminal half-life"}, {"measurement": "phosphorylated peptides that map to MAPK1 and MAPK3", "setting": "MAPK1 and MAPK3", "result": "considerably downregulated"}, {"measurement": "HER1/EGFR Pan-Phospho-Tyrosine", "setting": "HER1/EGFR", "result": "0.40 fold change to PBS"}, {"measurement": "increase of cellular levels of Foxo3a protein", "setting": "Foxo3a protein [3]", "result": 1.88, "unit": "fold"}, {"measurement": "increase of cellular levels of Foxo3a protein", "setting": "Foxo3a protein [4]", "result": 2.8, "unit": "fold"}]}
